{
  "source": "patent US20140134690A1",
  "about": "“MICROBES AND METHODS FOR PRODUCING 1-PROPANOL” (University of Georgia Research Foundation, Inc., priority 2012, published 2014)",
  "test_in_all_cases": "cells, lysate or membranes named",
  "key": {"O=C(CO)COP(=O)(O)O [1]": {"system": "O=C(CO)COP(=O)(O)O", "assay_type": "biochemical, C. difficile", "details": "other: substrate dihydroxyacetone phosphate 0.15-1.5 mM, crude extract, imidazole-HCl pH 7.0, 30° C.", "text": "(§1) 1,2-Propanediol pathway branches from glycolysis and competes for the intermediate dihydroxyacetone phosphate, with the glycolytic pathway. […] We amplified the mgsA genes from the microorganisms: C. acetobutylicum (ATCC#824), B. subtilis 168, C. difficile R20291, E. coli MG1655, T. thermophilus HB27, K. pneumoniae MGH78578, P. fluorescens Pf-5, and R. eutropha H16 respectively. These genes were cloned and expressed in wild type E. coli BW25113 using eight plasmids pRJ1-pRJ8. Each gene was under the control of the IPTG-inducible pLlacO1 promoter. Using dihydroxyacetone-phosphate as the substrate, we successfully detected the functional expression of all mgsA genes in vitro, where the specific activities varied from 0.0052 U/mg to 0.1242 U/mg (Table 1). […] Without the over-expression of mgsA gene, we also detected the native expression of E. coli mgsA, which gave a specific activity of only 0.0008 U/mg, much lower than that of any over-expression.\n(§2) Using the primers listed in Table 5, the mgsA genes were PCR amplified from the genomic DNA of C. acetobutylicum (ATCC824), B. subtilis 168, Clostridium difficile R20291, E. coli MG1655, Thermus thermophilus HB27, K. pneumoniae MGH78578, Pseudomonas fluorescens Pf-5, and Ralstonia eutropha H16 respectively. […]\n(§3) The assay was carried out using a two-step procedure. […] The samples were diluted 10 times before measuring the absorbance at 550 nm."}, "O=C(CO)COP(=O)(O)O [2]": {"system": "O=C(CO)COP(=O)(O)O", "assay_type": "biochemical, K. pneumoniae", "details": "other: substrate dihydroxyacetone phosphate 0.15-1.5 mM, crude extract, imidazole-HCl pH 7.0, 30° C.", "text": "as §1, §2, §3"}, "CC(=O)C=O": {"system": "CC(=O)C=O", "details": "other: methylglyoxal 20-120 mM, 0.25 mM NADH, crude extract, imidazole-HCl pH 7.0, 37° C."}, "CC(=O)CO": {"system": "CC(=O)CO", "details": "other: hydroxyacetone 20-120 mM, 0.25 mM NADH, crude extract, imidazole-HCl pH 7.0, 37° C."}, "O=C(CO)COP(=O)(O)O [3]": {"system": "O=C(CO)COP(=O)(O)O", "assay_type": "biochemical, E. coli", "details": "other: substrate dihydroxyacetone phosphate 0.15-1.5 mM, crude extract, imidazole-HCl pH 7.0, 30° C.", "text": "as §1, §2, §3"}},
  "data": [
    {"substance": "Clostridium difficile R20291 methylglyoxal synthase (mgsA), wild type (Clostridioides difficile R20291)", "values": [
      {"measurement": "Km", "setting": "O=C(CO)COP(=O)(O)O [1]", "result": "1439 ± 60", "unit": "µM"}
    ]},
    {"substance": "Klebsiella pneumoniae MGH78578 methylglyoxal synthase (mgsA), wild type (Klebsiella pneumoniae subsp. pneumoniae MGH 78578)", "values": [
      {"measurement": "Km", "setting": "O=C(CO)COP(=O)(O)O [2]", "result": "2820 ± 300", "unit": "µM"}
    ]},
    {"substance": "K. pneumoniae MGH78578 diol dehydrogenase (budC), wild type (Klebsiella pneumoniae subsp. pneumoniae MGH 78578)", "values": [
      {"measurement": "Km", "setting": "CC(=O)C=O", "result": "780 ± 30", "unit": "µM"},
      {"measurement": "Km", "setting": "CC(=O)CO", "result": "1830 ± 630", "unit": "µM"}
    ]},
    {"substance": "E. coli MG1655 methylglyoxal synthase (mgsA), wild type (Escherichia coli K-12)", "values": [
      {"measurement": "Km", "setting": "O=C(CO)COP(=O)(O)O [3]", "result": "1418 ± 120", "unit": "µM"}
    ]}
  ]
}
